Assay results published in publication PMC6793440 (Journal of Experimental Botany, 2019).

Molecular target: T1, His-labeled kinase domain of CEPR2 (CEPR2^KD-His, amino acids 642–977) (Arabidopsis thaliana, UniProt Q9C7T7 642-977)
T1 sequence: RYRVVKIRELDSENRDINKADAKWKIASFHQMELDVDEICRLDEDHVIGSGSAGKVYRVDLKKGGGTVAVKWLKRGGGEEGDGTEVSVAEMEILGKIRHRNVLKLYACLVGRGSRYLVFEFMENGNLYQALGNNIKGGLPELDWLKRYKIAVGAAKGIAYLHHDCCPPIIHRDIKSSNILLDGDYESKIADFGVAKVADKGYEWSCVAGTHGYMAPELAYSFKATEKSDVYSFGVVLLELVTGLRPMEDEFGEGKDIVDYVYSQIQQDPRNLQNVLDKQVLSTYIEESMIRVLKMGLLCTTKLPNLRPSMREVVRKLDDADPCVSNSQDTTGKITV
Assay: pull-down

B1: GST-tagged PYL2 (PYL2–GST) (receptor)
chain: MSSSPAVKGLTDEEQKTLEPVIKTYHQFEPDPTTCTSLITQRIHAPASVVWPLIRRFDNPERYKHFVKRCRLISGDGDVGSVREVTVISGLPASTSTERLEFVDDDHRVLSFRVVGGEHRLKNYKSVTSVNEFLNQDSGKVYTVVLESYTVDIPEGNTEEDTKMFVDTVVKLNLQKLGVAATSAPMHDDE
  binding result: binds

B2: GST-tagged PYL4 (PYL4–GST) (receptor)
chain: MLAVHRPSSAVSDGDSVQIPMMIASFQKRFPSLSRDSTAARFHTHEVGPNQCCSAVIQEISAPISTVWSVVRRFDNPQAYKHFLKSCSVIGGDGDNVGSLRQVHVVSGLPAASSTERLDILDDERHVISFSVVGGDHRLSNYRSVTTLHPSPISGTVVVESYVVDVPPGNTKEETCDFVDVIVRCNLQSLAKIAENTAAESKKKMSL
  binding result: binds
